Laboratory results from paper PMC6722078, “Defects in t^6A tRNA modification due to GON7 and YRDC mutations lead to Galloway-Mowat syndrome” (Nature Communications, 2019).

T1: LAGE3 (full-length, subunit of the recombinant GON7/LAGE3/OSGEP complex) (human, UniProt Q14657 1-143)
T1 construct: LAGE3, human, KEOPS subunit (homolog of Pcc1); full-length protein used for all structural work; no electron density for the 60 N-terminal residues; source: recombinant, co-expressed with the other KEOPS subunits, purified (size exclusion chromatography, NiIDA); details in Supplementary Methods
T1 sequence (looked up): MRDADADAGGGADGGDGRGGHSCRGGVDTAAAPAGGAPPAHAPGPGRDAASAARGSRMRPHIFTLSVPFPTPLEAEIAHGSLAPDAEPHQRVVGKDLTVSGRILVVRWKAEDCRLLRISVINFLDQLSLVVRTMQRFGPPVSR

B1: OSGEP (full-length, subunit of the recombinant GON7/LAGE3/OSGEP complex) (enzyme, human, UniProt Q9NPF4 1-335, looked up)
chain: MPAVLGFEGSANKIGVGVVRDGKVLANPRRTYVTPPGTGFLPGDTARHHRAVILDLLQEALTESGLTSQDIDCIAYTKGPGMGAPLVSVAVVARTVAQLWNKPLVGVNHCIGHIEMGRLITGATSPTVLYVSGGNTQVIAYSEHRYRIFGETIDIAVGNCLDRFARVLKISNDPSPGYNIEQMAKRGKKLVELPYTVKGMDVSFSGILSFIEDVAHRMLATGECTPEDLCFSLQETVFAMLVEITERAMAHCGSQEALIVGGVGCNVRLQEMMATMCQERGARLFATDERFCIDNGAMIAQAGWEMFRAGHRTPLSDSGVTQRYRTDEVEVTWRD
notes: OSGEP, human, catalytic subunit of the KEOPS complex (homolog of Kae1); full-length protein used for all structural work; source: recombinant, co-expressed with the other KEOPS subunits, purified (size exclusion chromatography, NiIDA); details in Supplementary Methods
B2: GON7 (full-length, subunit of the recombinant GON7/LAGE3/OSGEP complex) (natural protein, human, UniProt Q9BXV9 1-100, looked up)
chain: MELLGEYVGQEGKPQKLRVSCEAPGDGDPFQGLLSGVAQMKDMVTELFDPLVQGEVQHRVAAAPDEDLDGDDEDDAEDENNIDNRTNFDGPSAKRPKTPS
notes: GON7 (alias C14orf142), human, fifth subunit of the KEOPS complex; full-length protein used for all structural work; only residues 1-20 and 25-50 are seen in the crystal; also called C14orf142; GON7-his; source: recombinant, co-expressed with the other KEOPS subunits, purified (size exclusion chromatography, NiIDA); details in Supplementary Methods

Target: T1, LAGE3 (full-length, subunit of the …)
Test: SEC-SAXS; SAXS on samples eluting from an online size exclusion HPLC column; 20 mM MES pH 6.5, 200 mM NaCl, 5 mM 2-mercaptoethanol; purified recombinant GON7/LAGE3/OSGEP complex
Settings: both partners purified

Row | Binder | stoichiometry N
1 | B1 | 1
2 | B2 | 1
